# Assay: soluble on expression in E. coli; label from the status in PepcDB or PDB records
row,Sequence,soluble on expression in E. coli
1,IRRNETTEADKQIPHYEREIIYQVLYDMKKEIADLKGMMNRLAHHEQPSWPVGSDVWGNDDKRTADPKWGVSTHKAPIANAAEPVEPIQEASEYTEDPVSLEEVEKKMISLALERHGGRRKQTAEELKISERTLYRKIKEYGLE,not soluble
2,MGSDKIHHHHHHMDRIIEKLDHGWWVVSHEQKLWLPKGELPYGEAANFDLVGQRALQIGEWQGEPVWLVQQQRRHDMGSVRQVIDLDVGLFQLAGRGVQLAEFYRSHKYCGYCGHEMYPSKTEWAMLCSHCRERYYPQIAPCIIVAIRRDDSILLAQHTRHRNGVHTVLAGFVEVGETLEQAVAREVMEESGIKVKNLRYVTSQPWPFPQSLMTAFMAEYDSGDIVIDPKELLEANWYRYDDLPLLPPPGTVARRLIEDTVAMCRAEYE,soluble
3,MRVITVAGPPSVGKTSVVVKTATTLAAQGHRLGIVKFDSLSTSDDQVYRRAGLPVVVGLSGNVCPDHFFVSNIDDCVDWGRTHGVDILVAESAGLCNRCSPHVQGVQAICVVDNLSGVHTPRKIGPMLKLADVVVITKGDIVSQAEREVFAYNVRLANPRAQVMQFHGITGQGASDLAARMLCAPVVDALEGRRLRFSMPSAVCPYCIGETAIGVDHQRGNVRKMSFAEPARLEHHHHHH,soluble
4,GPGSMTNQSDAIFPNILWAQRAELVLITIPLQDATNVVVEIKEGRVLHFEAEAGGEKYRCDVELFREVVSEESRHAAQPRQIDIQLRKKAPLTESGEEEFAQSRSWLRLTRDKSKNSHIQVDWSRWRDEDEDEDETGGLGMDYNDLMSRMMTQKGLGEDDCMDCGNHTDEDGVGPGADKANHSDSDDYDDLPPLEP,soluble
5,MQVTSAEYLSNEESIKKGGNILMEKYNEKYNESIDGNKTLYKSYYESRRESIKNYNPDAKYINEIESIYMMLGEIYPNAPDFMSPHFEGDCSEGE,not soluble
6,MADEPLHYGEDYHFIHATSAASGLGVSVLPDLYCHTIQIVNICLVGRPDDHAFVLVDAGMPGSADDIVSVVEDRFGSGSRPQAIVLTHGHFDHVGAIVELVKHWNVPVYAHPAELPYLTGKASYPEPDASVEGGFIAKISPFFPNEPIQLGNRVQPLPADGTVPHLPEFRWIHTPGHTPGHISLFRPRDAALIAGDAFVTVRQDSLYKVLTQQIEISGPPRYYTIDWRAARESVRKLAALFPSVAITGHGAPVAGKELREGLTKLARDFDRIATPDYGKYVH,soluble
7,MSTQPSHPSSSNDLDSSIGTARIEVVSVPVKPRNKFSTTPVKRVEMKKSKESDSVDKALKVKSSLDCMKLEKPAPTTCEMKAA,soluble
8,MRCILLGSGTSTGVPEVGCHCRVCRSEDRHDKRTRTSLLIITDAGKRILIDCSPDFRQQALFAGIDSLDAVLLTHEHFDHVGGLDDLRTICWHRELAVYAEQNVLDSIRDRLHYVFRKNPYPGTPLLKLCEVKPDMPFQVADLTVEPLRIMHGRLPILGYKIGEMAFLTDMKDIAAEEIECLKSCRLLFINGLRYRKEHPSHQTIEQAIDTIGQIGNPESVLIHLSHHAPLHQEHLEILPPHIHSGYDGLEAIIDEKGIRIKDFEPHVSRSEYHYQDCGRIGYESALTLQRKLFHDAVADKLENRKPQNTLLFCEHEPVLTLGKHGHEENLLLSESELKSRDIRLFHIERGGDITYHGPGQITGYPIFDLEQYGIGLRSYIEMLEQCIIDLIAIFGLKGERSAGASGVWLDPDIPGRTRKICAIGVKSSRHITMHGFALNVNTDLDYFKLINPCGFSDRGVTSISRELGREQDFILVKQQLEAVFRRNFGAL,not soluble
9,SLASELHQTQVDLDGLLEVLGRNLYSTPAVAIRELIQNAHDACVRSRLETGRDGDFSIRIQADSHRNQIVITDNGSGLTYEEVLKYLATIGSGYTRVLRDSSHNEDMVGYFGLGFLSAYVVAEKVEVWTTSYQTPEQTWYFSTAGGKKFAISATAPAQVGTTVKLHLREEFYHLAESDLLQGLIERYCCLLRVPIFLNNDDVQVNNLVAPWRLDAATSELQRKKRRLEFAAIFEGAFEPLCAIPIPENNPWSLKGLLWVQDRGGYATSDYRNISVFVRSMFITGECRELLPLWAGFAGGVVESVALSPTASREDIQKNERFYEIRDFLAETLIEGLRTIAANESSVWRRILSRHNQTLLGAALSDDRLFEVMQNDLKIPTTIGDVTLPAYLKQSGGVIYIRNEDKNSQEELLFRAQMKPLVSGYLYAASGFCQKYAHWNHLKAHILGSGDGETKLFTEETVDKAIHDKLAALLLRKNEALSCARFEPAHVPLLVIHDQDVALKKRIERDEADKRIGSAALSLARLHTQAISAEIERRLYVNLNSPLIAAMIDGTQEAAGHLAVAVRAYMESLTHQVDDSDSNFSDELKRFSDALLAITKGEEG,soluble
10,MLEHLIKISRRNWSSLKVIILAGGRGKRITLFKPFLVVCGKPLISWAFDAVNKLSDKVYLGINQSHPLFTIFKHSIFKIFPTPDISYENDVKYVVESLGPPILVLPVDIAFINNNIINNLIERCAVDMCTLKSYGSYLGVTYWTGLNFSNYTDIEVKEKLYNINTWEDYIKANKECNILLEHHHHHH,soluble
11,MAHHHHHHMSDTRDVAQPRRGSFASRKARGETGGSKSSSSSSKNKEHSYDARRYHQNANTHGIHALRTFDCPVCDSKNTIRVTLNPRLGEGTVSCTYCCSLRPAPPDLPYPSVQRFVPSLENRADVFFRFNEQYAALLRQHKSERVGESVDPSSCLATVDNTRKRANKDDGESGGRARGPRGESRDEDGLFGDCALHMDTGLFDNAVDQHVTGTLAMLGSDDDGGSNTVADADPGNPKGVSTPSPPRPDGADMPESDFMNVAVIAGVDEAFAAHAADGVDGMGEADAEEVDVAAFFADSD,not soluble
12,SNAMKQAIGFIDSGVGGLTVVREVLKQLPHEQVYYLGDTARCPYGPRDKEEVAKFTWEMTNFLVDRGIKMLVIACNTATAAALYDIREKLDIPVIGVIQPGSRAALKATRNNKIGVLGTLGTVESMAYPTALKGLNRRVEVDSLACPKFVSVVESGEYKSAIAKKVVAESLLPLKSTKIDTVILGCTHYPLLKPIIENFMGDGVAVINSGEETASEVSALLDYHNLLDATDEEIEHRFFTTGSTQIFKDIAKDWLNMPDMTVEHIKLGK,soluble
13,MGSDKIHHHHHHMEIDPRAQLIEWESSSLGVKGRMYVYTPPEYHPHGPALPVVYLLRGHEREWVNRREDDSRMGSAIDVYERVRARGEIGPLILAMPGLASTDNRIPGLLADFAAPHLTDAEGIGSGRFATFFFEEVLPLLEREFHAHPQARAITGFSLGGYMAVKAVALHPELFVSVSAYDGSFPYASDNGRRSRRYDTLFTASMFDPALGRPRDPDRLRDHNPICLLMRANRAALRRITWMIQYGPEHIEPWGANFYRGEYLLRALATLGIANATPIAALPDGAHTWAVADRHLEQALPLHYRAFERVMKSDP,not soluble
14,MSVIDANALDTAAFVARYRALFEHSPWVVERAARRRPFDDVFGGLMQVVYDASPDDQLALIRAHPELAGKAAIDRTLTAASAAEQASAGLDRLDEDEFHRFHALNHAYRQRFGFPFVICVRLQDKAGILAELQRRLDAPRNDEIATALAEIGKIVHLRLEALPLEHHHHHH,soluble
15,MGSSHHHHHHSSGRENLYFQGVLGAGCIGGSIALKLKEKHHVTAFDRDEETMKALEENGIETVSKESDLYDTDLLVLALPMSVEERFLKETDFSGKILDVASVKTPFMEIARERGLNFTGGHPMAGNERKGKSGWDREMFDGKIFFLCSLDGKEDGMIENIVKDLGARPLWIDYRIHDEIVAAVSHVQYLISLSARYVGKPFEEYAGPGYLSNTRLSKQNMEMALDMIRYNKENILKYLENARNFLNVLYHLTEKEDFENLKKVIREVI,soluble
16,MGSDKIHHHHHHMKIQPLPPLNSLHAFESAARHLSFTLAAKELNVTQGAISRQVRLLEDYLGKALFTRTTRSMSLTPTGAQYYETVRECMLHLARATGDIRQWQGNQQVTVATSTAMASLWLLPKVSEFQSAHENIDLRIIAHDHVKDYARLDSDLALYYCNPPPKDMAVTPLFSEEIFLVCSPAYLARHPQLSSIEGLSSCTWLWLEDSQRDWVGWPEWFKRLGYEPMTPKHRVNINSYGMLIQSAISGQGVALAWGNLVDDALSTGALVKPNDVVLQTDAKFCLLESSTERGPRESVRLFRDWLMALPSVQK,not soluble
17,MGSAVIRVLSYNIRSMRDDTAALARVISACEPDLVLVQEAPRFFRWRKKLAPLASACGQVVLSGGATAAGPALLCSLRATVERTEDVLLPLTPGLHRRGFATAVVRFGRARLGVLSCHLSLQKNERYEQGGMLLDHLARLGTPHAIAGGDLNERPDGRTFKRLASELRDCWATAPWGAEYTSTPADPHQRIDAILATPGIEVLACGVPLGHPGVTEADLRAATDHLPVLAALRVPASLEHHHHHH,not soluble
18,MSLEPLAETYQALVLAVRDYVTKNGFHGAVLGLSGGIDSALTLAIAADAIGADKVQAVMMPFRYTAQMSVEDAKEQAERMGVEFNIISIEPMFEGFMAQLAPLFEGTARDTTEENLQARCRGVLLMALSNKRRCIVLTTGNKSEMAVGYATLYGDMAGGFDVLKDVPKTLVFKLCEYRNSVDYVIPQRVIDRPPSAELAPDQVDQDSLPPYDILDAILKRYVEEDASVADMVAEGFEEAVVRKVIRLVDLNEYKRRQAAVGPRITARNEGHHHHHH,not soluble
19,MKKIEIFDPAMCCPTGLCGTNINPELMRIAVVIESLKKQGIIVTRHNLRDEPQVYVSNKTVNDFLQKHGADALPITLVDGEIAVSQTYPTTKQMSEWTGVNLD,soluble
20,MGSDKIHHHHHHMKNIFVFGADEFNLSLMRSLDSAHEYCFHELYQYSEVKTGKEFPVETLYEGALARLNSYPDSVDAIVGYLDFPVSTMLPLLCQSLGLPSPSFEAVLKCEHKYWSRLEQRRVIPEYIPNFCSVDPFKDDYRQQITLDYPFWLKPVKAVLSHLGFMVRDDSELEMAIIEIRKKIYCFAKPFNYLLQFADLPDEIAAVDGYHCIAEGIISHGQQCTLEGYVFDGKLCVYGTVDSIREGEHGSSFSRYQYPSSIPQPIQDKMIAVTERFLTAIDFDNGPFNIEYYWDKDSDHIWLLEINTRISKSHSPLFRNVDGKSHHQIMLDLALGKQPIFPHRKGLYRYSAKFMWRTHADAQVNRVPTEQEIQAITQRIGGTDIQLHVREGMRLSDLNYQDSYSYEIATVFIGGDSEQELLQKYHDVQQALPLELVPLL,not soluble
21,MPGIIYEGKGTNMEYADVFDSLVGDLKDDVLSLQLTNFDDVNHSYKSDGKCSMSVKDFDGYAENMPVKNVEYNGQKYIFMRSISDDAQPSQVFISVDGDERGRKRGMLITSFCGILRMISTFDYQIANSVTAKIFKVLGEYSCEEEE,not soluble
22,HVHVVSNEILGLTNLLKDKKIKSKVIQFEVQFPTEEVAAHLSIDQKTPVYYVVRLRIVEGEPYVLEKTYMPTHLIPGINDDVLHDSIYNHITNVLQLKIAGTHRKIRACKSDHIDQQHLGCKQDDPILEVEHVGFLDTGIPFEYSFSRHRHDKFVVTSVNIRR,not soluble
23,MGSDKIHHHHHHMIILTRKDLDELLKAEIAVSSVKEAFKLHYQKKVDQPQRLVMSVKGNWWGLMPSSTDYSFVTKIVNVIPENKERGLPLVQGVVILMSPDTGEILAIIDGTTLTAIRTAAASILSTELAINGRNIGILGIIGAGTEAYYHAKLALEYFKVQKLYISARKSHFELAKRVGGEATDLETLLKNSDTIFATTSSNFPVVLGKYLKDVFHLSSIGAHTPDSRELDDDTIIKVKSYIVDSLEAVSKESGDYIIPKQRGLLENKMIKELGEIIEKGIKIERPSLFKTVGIAVEDNITAHIAYQEALRRGIGFNVSI,not soluble

# Source: the DeepSol protein solubility set
